Assay results from the nanobody polyreactivity screen of Harvey et al. (2022).

Assay: yeast display, Sf9 membrane polyspecificity reagent, FACS + sequencing; frameworks hold sequencing errors
Method in brief: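 Galactose induction of a Saccharomyces cerevisiae BJ5465 synthetic nanobody display library ran 36–48 hours. The cells were then stained for 1 hour at 4 °C with 10% biotinylated, detergent-solubilized Sf9 membrane reagent, pulled down on streptavidin microbeads and FACS-sorted into low and high (top ~1%) gates on expression and reagent-binding fluorescence. Labels for polyreactivity follow the gate of origin.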
For “QVQLVESGGGLVQAGGILRLSCAASGRIFRPNAMGWYRQAPGKERELVAAISSGGSTYYADSVKGRFTLSRDNAKNSVYLQMNSLKPEDSAVYYCNAKASFWSPYDYWGQGTQVTVSS”, the “polyreactivity (PSR sort gate)” value was “high polyreactivity”. For “QVQLVESGGGLVQAGGILRLSCAASGRILPSNAMGWYRQAPGKERELVAGITSGGSTDYADSVKGRFTISRDNAKNTVYLQMNSLKQEDTAVYYCNKPFPYYPDGPNGYDYWGLGTQVTVSS”, the “polyreactivity (PSR sort gate)” value was “low polyreactivity”. In the case of “QVQLVESGGGLVQAGGILRLSCAASGRIYEIYAMGWYRQAPGKDRELVAAISWRGVSTYYADSVKGPFTISRDNAKNNVYLQMNSLKPEDTAVYYCNKDVDYFWYVEYDYWGQGTQVTVSS”, the “polyreactivity (PSR sort gate)” value is reported as “low polyreactivity”. In the case of “QVQLVESGGGLVQAGGILRLSCAASGRTFFVYAMGWYRPAPGTEWEGVAAISNTGGRTYYADSVKGRFTISRDYAKNTVYFQMNSLKPEDTAVYYCAAPYSGPYRSYEYYWGQGTHVTVSS”, the “polyreactivity (PSR sort gate)” value is reported as “low polyreactivity”. With “QVQLVESGGGLVQAGGILRLSCAASGRTFGWNAMGWYRQAPGKERELVAAISWSGTNTYYADSVKGRFTISRDNAKNTVYLQMNCLNPEDTAVYYCAARDWTGSWNGYWYWEYNYWGQGTQVTVSS” the “polyreactivity (PSR sort gate)” value was “low polyreactivity”. With “QVQLVESGGGLVQAGGILRLSCAASGRTFSVNAMGWYRQAPGKERELVAAITRRGGSTYYADSVKGRFTISRDYAKNTVYLQMKSLKPEDTAVYYCAAEFVTYYSSSKRAYYYWGQGTQVTVSS” the “polyreactivity (PSR sort gate)” value was “high polyreactivity”. In the case of “QVQLVESGGGLVQAGGILRLSCAASGSIFNYYAMGWYRQAPGKEREMVAAITTSGGRTYYADSVKGRFTISRDNAKNTVYLQMNSLKPEDTAVYYCAARGYGRRAYVYRYDYWGQGTQVTVSS”, the “polyreactivity (PSR sort gate)” value is reported as “high polyreactivity”. For “QVQLVESGGGLVQAGGILRLSCAASGSIFSPNAKGWYRQAPGKVRQLVAAIDFSAGSTYYADSVKGRFTISRDNAKNTVYLQMHSLKPEDTAVYYCAADYYYSYCYWFSSSYGYWGPGTQVTVSS”, the “polyreactivity (PSR sort gate)” value was “high polyreactivity”. For “QVQLVESGGGLVQAGGILRLSCAASGSIFVNNAMGLYRQAPGKERELVAAITSGTRTNYADSVKGRFTISRDNAKNTVYLQMNSLKPEDTAVYYCAAVKYRYAYVPPRFDYWGQGTQVTVSS”, the “polyreactivity (PSR sort gate)” value was “low polyreactivity”. In the case of “QVQLVESGGGLVQAGGILRLSCAASGSIFYAYAMGWYRQAPGKERELVASITWSGASTYYADSVKGRFTISRDNAKNTVYLQMNSLKPEDTAVYYCAATDQKLSLDYSSYEYWGQGTQVTVSS”, the “polyreactivity (PSR sort gate)” value is reported as “low polyreactivity”. With “QVQLVESGGGLVQAGGILRLSCAASGSIFYRYAMGWYRPAPGKERELVAAINWSGGITYYADSEKGRFTISRDNAKITFYLQMISLKPEDTAVYYCAARTHVYNWGYYYWGQGTQVTVSS” the “polyreactivity (PSR sort gate)” value was “high polyreactivity”. In the case of “QVQLVESGGGLVQAGGILRLSCAASGSKIGYYAMVWYRQAPGKERELVAAISAGDRTYYADSVKGRFTISRDNAKNTVYLQMNSLKPEDTAVYYCAAASYYQSYRYGYWGQGTQVTVSS”, the “polyreactivity (PSR sort gate)” value is reported as “high polyreactivity”. In the case of “QVQLVESGGGLVQAGGILRLSCAASGSTFARYAMGWYRQEPGKERELVAVIRSGGSTNYADSVKGRFTISRDNAKNTVYLQMNSLKPEDTAGAADQWTIHRWATYGYWGQGTQVTVSS”, the “polyreactivity (PSR sort gate)” value is reported as “low polyreactivity”. For “QVQLVESGGGLVQAGGILRLSCAASGSTFAVNAMGWYRQAPGKERELVAAISTSGGSTYYADSVKGRFTISRDNAKNTVYLQMNSLKPEDTSVYDCAAGRVRRRVWYNYWGQGTQVTVSS”, the “polyreactivity (PSR sort gate)” value was “high polyreactivity”. With “QVQLVESGGGLVQAGGILRLSCAASGSTFAVYAMGWYRQAPGKERELVAAISRSGGRTYYADSVKGRFTISRDNAKNTVYLQMNCLKPDDTAVYYCAAPSTCSYGSDYWGPGTQVTVSS” the “polyreactivity (PSR sort gate)” value was “high polyreactivity”. For “QVQLVESGGGLVQAGGILRLSCAASGSTFGDYTMGWYRHAPGKERELVAAITLTGGSTFYSDSVKGRFTISRDNAKNTVYLQMNSLKPVDTAVYYCNTDVIRWVGGTWHRYYYWGQGTQVTVSS”, the “polyreactivity (PSR sort gate)” value was “low polyreactivity”. With “QVQLVESGGGLVQAGGILRLSCAASGSTFGYNAMGWYRQAPGKERELVAAIRFSGGSTFYADSVKGRFTISRDNAKNTVYLQMNSLKPEDTAVYNCAAGSAYYSQRYFAYGYDSWGQGTQVTVSS” the “polyreactivity (PSR sort gate)” value was “low polyreactivity”. In the case of “QVQLVESGGGLVQAGGILRLSCAASGSTFVGYAMGWNRQAPGKERELVAAISRTGASTYYADSVKGRFTISRDNAKNTVFLQMNSLKPEDTEVYYCAYYYSIYDYWGQGTLVTVSS”, the “polyreactivity (PSR sort gate)” value is reported as “high polyreactivity”. In the case of “QVQLVESGGGLVQAGGILRLSCAASGSTFVTYTMGWYRQAPGKERELVATITTSGGSTYYADSVKGRFTISRDNAKNTVYLQMNSLKPEDTAVYYCAADWDPGYYVQYGYDYWGQGTQVTVSS”, the “polyreactivity (PSR sort gate)” value is reported as “low polyreactivity”. In the case of “QVQLVESGGGLVQAGGILRLSCAASGSTFYIYAMGWYRQAPGKERELVAAISTTDGTTYYADSVKGRFTISRDNAKNTVYLQMNSLKPEDTAVYYWAAEWFGSVQPAYDYWGQGTQVTVSS”, the “polyreactivity (PSR sort gate)” value is reported as “high polyreactivity”. In the case of “QVQLVESGGGLVQAGGILRLSCAASGSTFYYYAMGWYRQAPGKERELVAAISSSGGTTYYADSVKGRLTISRDNAKNTVYLQMNSLKAEVTAVYYCAAQRYPSSLYQRFYYWGQGTQVTVSS”, the “polyreactivity (PSR sort gate)” value is reported as “high polyreactivity”. For “QVQLVESGGGLVQAGGILRLSCAASGSTLGKNAMGWYRQAPGKERELVAAISYSGGSTYYADSVKGRFTISRDNAKNTVYLQMNSLKPEDTAVYYCAAQRRYHYWGQGTQVTVSS”, the “polyreactivity (PSR sort gate)” value was “low polyreactivity”. With “QVQLVESGGGLVQAGGILRLSCAASGYTFWDYAMGWYRQAPGKEREFVAGISFSDGGTYYADSVKVRFTISRDNAKNTVYLQMNSLKPEDTAVYYCAVPQDSGYGVSEHYNWGQGTQVTVSS” the “polyreactivity (PSR sort gate)” value was “low polyreactivity”. With “QVQLVESGGGLVQAGGILRLSCAAYGSIFPHNAMGWYRQAPGKERELVASITSRGGITYYADSVKGRFTISRDNAKNTGYLQMNSLIPEDTAVYYCAGDLYIYPYDYWGQGTQVTVSS” the “polyreactivity (PSR sort gate)” value was “low polyreactivity”. In the case of “QVQLVESGGGLVQAGGILRLSCAPSGRIFKYYGMGWYRQAPGKERELVAAIYRGSSTNYAHSVKGRFTISRDNAKNTVYLQMNSLKPEDTAVYYCAKVGWSRRYYYWGQGTQVTVSS”, the “polyreactivity (PSR sort gate)” value is reported as “high polyreactivity”. With “QVQLVESGGGLVQAGGILRLSCPASGSTLDRYVMGWYRQAPGKERELVAVISQSGGSTYYADSVKGRFTISRDNAKNTVYLQINSLKPEDTAVYYCAAKRYSFAYRQYDYWGQGTQVTVSS” the “polyreactivity (PSR sort gate)” value was “high polyreactivity”. In the case of “QVQLVESGGGLVQAGGILRLSSAASGSTFTLNAMGWYRQEPGKERELVADITSGGGGTYYADSVKGRFTISRDNAKNTVYLQMNSLKPEDTAVYYCAADDFHSLLGYWYGLFDFWGQGTQVTVSS”, the “polyreactivity (PSR sort gate)” value is reported as “low polyreactivity”. In the case of “QVQLVESGGGLVQAGGILRVSCAASGRIFRFYAMGWYRQAPGKERELVADISRRGGSTYYADSVKGRFTISRDNAKNTVYLQMNSLKPEDTAVYYCNARWYRTGSTYHDDYWGQGTQVTVSS”, the “polyreactivity (PSR sort gate)” value is reported as “high polyreactivity”. In the case of “QVQLVESGGGLVQAGGILSLSCAASGRIFPDNTMGWYRQAPGKQRELVAVITYSGGSTYYADSVKGRFTISRDNAKNTVYLQMNSLNPEDTAVYYCAARDFYIWFAEVDYWGQGTLVTVSS”, the “polyreactivity (PSR sort gate)” value is reported as “low polyreactivity”. With “QVQLVESGGGLVQAGGILSLSCAASGRTFCYYTMGWYRQAPGKERELVAAISSGGRTNYADSVKGRFTNSRDNAKITVYLQMISLKPEDTAVYYGATSLYYKYVERDYWGHGTQVTVSS” the “polyreactivity (PSR sort gate)” value was “high polyreactivity”.
